Assay results as given in patent US12043671B2, “Antibodies targeting an amphiregulin-derived cell surface neo-epitope” (Gundersen Lutheran Medical Foundation, Inc., priority 2021, dated 2024).
Non-standard residues stand in square brackets, D forms with d. Residues, ends and D or L forms follow the SMILES beside them. *: point of attachment. Dolaproine = CO[C@@H]([C@@H]1CCCN1)[C@@H](C)C(=O)O; Dil = CC[C@H](C)[C@H](NC)[C@@H](CC(=O)O)OC; X1 = C[C@@H](N*)[C@@H](O)c1ccccc1; NMeV = CN[C@H](C(=O)O)C(C)C

How the values were obtained:
[1] = tested on: MCF7-F (fulvestrant-resistant MCF7) breast cancer cells; test: MTT cytotoxicity assay; conditions: 1.56-200 nM, 72 h
Protocol: (§1) The cells were seeded at a density of 5000 cells/well in 96-well plates. Approximately 24 h after cell seeding, the cells were treated with varying doses (1.56, 3.125, 6.25, 12.5, 25, 50, 100 and 200 nM) of MMAE, 1A3 and 1A3-VC-PAB-MMAE. Untreated cells were used as control. After incubating for 72 h, the medium was aspirated and 50 μL of serum-free media and 50 μL of MTT solution (5 mg/mL solution in PBS) was added into each well; the cells were then incubated for 3 h at 37° C. The formazan crystals formed were dissolved with 4 mM HCl, 0.1% NP40 in isopropanol. The absorbance was measured at 590 nm using VersaMax Microplate Reader (Molecular Devices LLC, San Jose, California, USA). The assays were performed in triplicate.

[2] = tested on: MCF-7 cells; test: Tubulin staining (microtubule integrity); assay type: cell-based, human; conditions: 48 h treatment
Protocol: FIGS. 4A-4E. In vitro 1A3-MMAE cytotoxicity in MCF-7 (FIG. 4A) and MCF-7F (FIG. 4B) cells measured by MTT assay after treatment with 1A3-MMAE, 1A3 or MMAE. FIG. 4C: Clonogenic growth of MCF-7 or MCF-7F cells after exposure to 1A3-MMAE and replating. FIG. 4D: The quantification of clonogenic growth assays in FIG. 4C. (FIG. 4E). Tubulin staining of MCF-7 cells after 48 h treatment with MMAE, 1A3, 1A3-MMAE (40× magnification).

[3] = tested on: MCF7 breast cancer cells; test: MTT cytotoxicity assay; conditions: MCF7, 1.56-200 nM, 72 h
Protocol: as §1

[4] = molecular target: T1, peptide representing the neo-epitope of the ADAM17-cleavage product of human AREG (Homo sapiens, UniProt P15514); test: ELISA of rabbit IgG candidates against peptides representing cleaved and full length AREG; assay type: binding; conditions: IgG format; cleaved vs uncleaved AREG peptide
T1 construct: host or cells: synthetic peptide
From the text: FIGS. 1A-1C. Isolation of antibodies that selectively recognize a peptide representing cleaved AREG. FIG. 1A: Schematic representation of the AREG cleavage and EGFR activation process, one consequence of which is the internalization of the small transmembrane fragment that remains cell-associated after TACE/ADAM17-mediated cleavage. FIG. 1B: Schematic representation of phage panning strategy using a peptide representing the cleaved AREG neo-epitope adhered to the well and a peptide representing the non-cleaved AREG region in the liquid phase.
Rabbit monoclonal IgG antibodies specific to cleaved-AREG were identified in contracted screening (Oak Biosciences Inc., Sunnyvale, CA, USA) using a recombinant Rabbit naïve phage display library (scFv format, VK-linker-VH) screening platform after four rounds of panning and ELISA validation. For panning, phage was selected against a peptide modeling the ADAM17-cleaved cell-associated epitope of AREG,^12 represented by the N-terminal region of THSMIDSSLSKI (SEQ ID NO: 2), and counter-selected against a peptide spanning this region (SMKTHSMIDSSLSKIAC; SEQ ID NO: 9), representing uncleaved AREG. […] GMF-1A3, referred to hereafter as simply “1A3”, was the antibody chosen for further characterization in this Example.

[5] = tested on: MCF7 cells; test: Internalization and intracellular localization of 1A3-pHrodo, live-cell imaging; assay type: cell-based, human
Protocol: In order to study internalization, 1A3 was conjugated with pHrodo iFL Red dye using pHrodo iFL Red Microscale Protein Labeling Kit (P36014, Thermo Fisher Scientific). MCF7 cells were seeded in 12 mm Nunc Glass Bottom Dish, at a density of 1 ×10^5 cells/dish. After allowing the cells to attach overnight, the cells were incubated for 60 min with […] Hoechst dye for nuclei staining and LysoTracker® Green DND-26 (Thermo Fisher Scientific) for lysosomal labeling. The cells were then incubated with 1A3-pHrodo (2 μg/mL) for 20 min at 37° C. After washing the wells with PBS, the cells were supplemented with 1× live-cell imaging solution (Molecular probes, Thermo Fisher Scientific). Fluorescence images were acquired at 30 min intervals for 2.5 h with the Olympus 1×71 inverted fluorescence microscope (Olympus, Shinjuku, Tokyo, Japan). TAPI-2 (20 μM)—pre-treatment was performed overnight, with DMSO serving as a control.

`CC[C@H](C)[C@@H]([C@@H](CC(=O)N1CCC[C@H]1[C@H](OC)[C@@H](C)C(=O)N[C@H](C)[C@@H](O)c1ccccc1)OC)N(C)C(=O)[C@@H](NC(=O)[C@@H](NC)C(C)C)C(C)C` [MMAE, monomethyl auristatin E, reference compound] (H-[NMeV]V[Dil][Dolaproine]-X1) was tested, and the “cytotoxicity by MTT assay” value [1] was “potently killed the cells”, the “tubulin disruption (microtubule integrity)” value [2] was “exhibited tubulin disruption” and the “cytotoxicity by MTT assay” value [3] was “potently killed the cells”.

B1: GMF-3A3: Rabbit monoclonal IgG specific to cleaved AREG; VH SEQ ID NO: 5, VL SEQ ID NO: 6 (antibody, V domains shown)
VH: QQQLVESGGRLVTPGTPLTLTYTVSGFSLSDYHMSWVRQAPGKGLQWIATISNRGNTYYASWAKGRFTISKTSTTVDLKITSPTTEDTATYFCARDNVHGDGVLVFYLWGPGTLVTVSS
VL: AELVMTQTPASVSEPVGGTVTIKCQASQSIGTNLAWYQQKPGQPPKRLIYKASTLASGVSSRFKGSGSGTEFTLTISDLECADAATYYCQGYYSGDSNAFGGGTEVVVK
modifications: 3A3 antibody, Heavy chain; 3A3 antibody, Light chain
For B1, the “selectivity for cleaved AREG by ELISA” value [4] was “selectivity for cleaved AREG was confirmed”.

B2: GMF-3E4: Rabbit monoclonal IgG specific to cleaved AREG; VH SEQ ID NO: 7, VL SEQ ID NO: 8 (antibody, V domains shown)
VH: QSVKESEGRLVTPGTPLTLTCTVSGFSLSDYWMSWVRQAPGKGLEWIGIAGYSDNTYYASRAKGRFTISKTSTTVVLKITRPTTEDTATYFCVRDLYGVYSSGTTLWGPGTLVTVSS
VL: AELVMTQTPSPVSAAVGGTVTISCQSSQSVYNNNRLAWFQQKPGQPPKLLIYYASTLASGVSSRFKGSGSGTQFTLIISDVVCDDAATYYCQGYYSGGITGFGGGTEVVVK
modifications: 3E4 antibody, Heavy chain; 3E4 antibody, Light chain
With B2 the “selectivity for cleaved AREG by ELISA” value [4] was “selectivity for cleaved AREG was confirmed”.

B3: 1A3-pHrodo (conjugate)
VH: QSVKESEGRLVTPGTPLRLTCTVAGYSLSRYHMCWVRQAPGKGLEWIGMIGGSGRTDYASWAKGRFTISKTSTTVDLKITSPTTEDTATYFCSTVYTDSDGDFWGPGTLVTVSS
VL: AELDMTQTPSSKSVPVGGTVTINCQASESVYSNDRLAWFQQKPGQPPKLLIYYASTLASGVPSRFKGSGSGTQFTLTISDLECADAATYYCQSCYDMSSYGVAFGGGTELEIL
For B3, the “time of treatment after which red fluorescence (presence in acidic endosomes) was evident” value ([5]; 1A3-pHrodo 2 μg/mL) was 30 min and the “fluorescence development after pretreatment with ADAM17 inhibitor TAPI-2” value ([5]; TAPI-2 20 μM overnight pre-treatment) was “prevented the development of fluorescence”.
